Data taken from US20240091164A1.

Target: FcεRIα subunit of the high-affinity IgE receptor (FcεRI) (human) (UniProt P12319)
Test: cell-based or functional assay

Chain of FcεRIα subunit of the high-affinity IgE receptor (FcεRI) (human) (P12319 26-257 limits assumed, form in doubt): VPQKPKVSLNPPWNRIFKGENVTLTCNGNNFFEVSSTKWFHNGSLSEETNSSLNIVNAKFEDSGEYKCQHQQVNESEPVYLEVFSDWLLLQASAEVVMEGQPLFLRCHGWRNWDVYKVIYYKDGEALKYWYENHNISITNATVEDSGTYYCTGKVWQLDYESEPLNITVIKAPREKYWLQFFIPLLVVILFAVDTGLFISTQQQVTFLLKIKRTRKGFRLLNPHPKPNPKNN

anti-FcεRIα antibody, clone AER-37 (CRA1)
positive population mean for CD63: 52.7%
positive population mean for CD107a: 71.2%
